# Results taken from publication PMC4366199, “Arfaptin-1 Negatively Regulates Arl1-Mediated Retrograde Transport” (PLoS ONE, 2015).
# T1: GST-Arl1QL (Arf-like protein 1, Gln71 to Leu, putative active GTP-bound form) (human, UniProt P40616 1-181, Gln71 to Leu (Arl1QL))
# T1 construct: Arf-like protein 1 (Arl1), human; fragment encoding Arl1QL subcloned into pGEX4T via EcoRI; Loaded with GTPγS on the resin; also called active form of Arl1; source: E. coli BL21, immobilized on glutathione-sepharose resin, exchanged for GTPγS
# T1 sequence (looked up): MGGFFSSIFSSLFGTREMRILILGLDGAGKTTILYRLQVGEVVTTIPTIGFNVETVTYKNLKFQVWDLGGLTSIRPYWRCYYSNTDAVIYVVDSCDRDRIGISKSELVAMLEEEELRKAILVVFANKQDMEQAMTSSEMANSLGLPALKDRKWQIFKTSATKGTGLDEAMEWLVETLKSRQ
# Biological target: T1, GST-Arl1QL (Arf-like protein 1, Gln71 …)
# Test: pull-down; GST fusion proteins (5 μg) immobilized on glutathione-sepharose, incubated with GTPγS (QL) or GDP (TN); HeLa lysates (2.5 mg), endogenous proteins; 12.5% SDS-PAGE and western blotting
# Conditions: one partner purified
row,Binder,"fold change of the level bound, against Arf1QL [fold]"
1,"arfaptin-1a (Arf-interacting protein 1, short isoform), endogenous (natural protein, human (endogenous in HeLa), UniProt P53367-2 1-341, looked up, arfaptin-1a, short isoform of arfaptin-1; lacks the insertion (residues 69-100) of arfaptin-1b; also called arfaptin-1a (short form); source: endogenous, HeLa lysate) MAQESPKNSAAEIPVTSNGEVDDSREHSFNRDLKHSLPSGLGLSETQITSHGFDNTKEGVIEAGAFQGGQRTQTKSGPVILADEIKNPAMEKLELVRKWSLNTYKCTRQIISEKLGRGSRTVDLELEAQIDILRDNKKKYENILKLAQTLSTQLFQMVHTQRQLGDAFADLSLKSLELHEEFGYNADTQKLLAKNGETLLGAINFFIASVNTLVNKTIEDTLMTVKQYESARIEYDAYRTDLEELNLGPRDANTLPKIEQSQHLFQAHKEKYDKMRNDVSVKLKFLEENKVKVLHNQLVLFHNAIAAYFAGNQKQLEQTLKQFHIKLKTPGVDAPSWLEEQ",1.84
2,"arfaptin-1b (Arf-interacting protein 1b, long isoform), endogenous (natural protein, human (endogenous in HeLa), UniProt P53367 1-373, looked up, arfaptin-1b, long isoform of arfaptin-1 with an insertion (residues 69-100) absent from arfaptin-1a; source: endogenous, HeLa lysate) MAQESPKNSAAEIPVTSNGEVDDSREHSFNRDLKHSLPSGLGLSETQITSHGFDNTKEGVIEAGAFQGSPAPPLPSVMSPSRVAASRLAQQGSDLIVPAGGQRTQTKSGPVILADEIKNPAMEKLELVRKWSLNTYKCTRQIISEKLGRGSRTVDLELEAQIDILRDNKKKYENILKLAQTLSTQLFQMVHTQRQLGDAFADLSLKSLELHEEFGYNADTQKLLAKNGETLLGAINFFIASVNTLVNKTIEDTLMTVKQYESARIEYDAYRTDLEELNLGPRDANTLPKIEQSQHLFQAHKEKYDKMRNDVSVKLKFLEENKVKVLHNQLVLFHNAIAAYFAGNQKQLEQTLKQFHIKLKTPGVDAPSWLEEQ",1.84
